From article PMC3119066 (DNA repair, 2011)
Like-named read-outs stand apart in the source and are kept apart here.

T1: Rad51 (S. cerevisiae, UniProt P25454 1-400)
T1 sequence (looked up): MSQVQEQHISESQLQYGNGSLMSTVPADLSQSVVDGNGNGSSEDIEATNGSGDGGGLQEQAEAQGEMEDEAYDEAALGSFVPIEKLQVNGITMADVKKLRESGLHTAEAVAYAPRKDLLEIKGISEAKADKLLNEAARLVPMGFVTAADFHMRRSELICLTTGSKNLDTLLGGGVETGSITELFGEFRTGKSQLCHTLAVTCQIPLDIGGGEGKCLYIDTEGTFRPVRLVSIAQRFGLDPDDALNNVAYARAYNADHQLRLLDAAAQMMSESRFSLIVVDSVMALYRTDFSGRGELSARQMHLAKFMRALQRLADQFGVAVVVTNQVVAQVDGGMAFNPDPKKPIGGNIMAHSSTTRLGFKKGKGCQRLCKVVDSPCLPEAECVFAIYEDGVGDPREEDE


Assays:
Rad51 [1] = molecular target: T1, Rad51; test: pull-down
Rad51 [2] = molecular target: T1, Rad51; test: pull-down; remark: listed apart in the source

Binder | binding result (Rad51 [1]) | binding result (Rad51 [2])
MBP-Mei5-N (domain or fragment, S. cerevisiae, UniProt P32489 1-121, looked up) MHNQEEWLDKDKTLVNEEENTCINHSYTKKDTNNYRVGKSGIKDLKKPTNQKEIAIKNRELTKQLTLLRQENNHLQQACKILSENKIIENRKSIEKWRTICEMELSFILNSTLIKINRMGG | binds | 
Mei5-Sae3 complex (complex, S. cerevisiae) chain 1: MHNQEEWLDKDKTLVNEEENTCINHSYTKKDTNNYRVGKSGIKDLKKPTNQKEIAIKNRELTKQLTLLRQENNHLQQACKILSENKIIENRKSIEKWRTICEMELSFILNSTLIKINRMGGYKDFLEKEMEAKKRRLEYQIDNGMEDQICEIKESDDFRQLSEVEKQEWESQMNEQLKELEKKKIAELEKLNKVLHDSEGKDFGMAELCTRLKLDYSLIFPQ chain 2: MNYLETQLNKKQKQIQEYESMNGNLIKMFEQLSKEKKNDETPKKISSTYIKELKEYNELRDAGLRLAQIIADEKQCKIKDVFEEIGYSMKD |  | binds
